Assay results published in patent US20090098124A1 (MacroGenics, published 2009).
Substitutions are numbered along the chain they refer to. Numbers in names are those of the source.

T1: soluble dimeric FcγRIIB (extracellular domain fused to hinge-CH2-CH3 of human IgG2) (human, UniProt P31994 43-217)
T1 construct: extracellular domain; also called FcRIIB; FcRIIB-Fc; not shown: human IgG2 hinge-CH2-CH3
T1 sequence (looked up): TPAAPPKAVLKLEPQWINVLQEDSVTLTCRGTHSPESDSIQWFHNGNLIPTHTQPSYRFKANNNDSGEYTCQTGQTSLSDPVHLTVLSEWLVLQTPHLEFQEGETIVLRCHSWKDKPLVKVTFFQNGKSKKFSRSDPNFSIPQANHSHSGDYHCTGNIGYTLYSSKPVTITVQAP

B1: IgG1 Fc mutant A231V, Q386H, V412M (antibody)
heavy: ASTKGPSVFPLAPSSKSTSGGTAALGCLVKDYFPEPVTVSWNSGALTSGVHTFPAVLQSSGLYSLSSVVTVPSSSLGTQTYICNVNHKPSNTKVDKKVEPKSCDKTHTCPPCPVPELLGGPSVFLFPPKPKDTLMISRTPEVTCVVVDVSHEDPEVKFNWYVDGVEVHNAKTKPREEQYNSTYRVVSVLTVLHQDWLNGKEYKCKVSNKALPAPIEKTISKAKGQPREPQVYTLPPSRDELTKNQVSLTCLVKGFYPSDIAVEWESNGHPENNYKTTPPVLDSDGSFFLYSKLTMDKSRWQQGNVFSCSVMHEALHNHYTQKSLSLSPGK
B2: IgG1 Fc mutant V303I, V369F, M428L (antibody)
heavy: B1 heavy with V114A, V186I, V252F, H269Q, M295V, M311L
B3: IgG1 Fc mutant P247L, A330T, S440G (antibody)
heavy: B1 heavy with V114A, P130L, A213T, H269Q, M295V, S323G
B4: IgG1 Fc mutant K246I, Q362H, K370E (antibody)
heavy: B1 heavy with V114A, K129I, Q245H, K253E, H269Q, M295V
B5: IgG1 Fc mutant D221Y, M252I, A330G, A339T, T359N, V422I, H433L (antibody)
heavy: B1 heavy with D104Y, V114A, M135I, A213G, A222T, T242N, H269Q, M295V, V305I, H316L
B6: IgG1 Fc mutant C229Y, A287T, V379M, P396L, L443V (antibody)
heavy: B1 heavy with C112Y, V114A, A170T, V262M, H269Q, P279L, M295V, L326V
B7: IgG1 Fc mutant K246R, S298N, I377F (antibody)
heavy: B1 heavy with V114A, K129R, S181N, I260F, H269Q, M295V
B8: IgG1 Fc mutant K246N, Q419R, P396L (antibody)
heavy: B1 heavy with V114A, K129N, H269Q, P279L, M295V, Q302R
B9: IgG1 Fc mutant K326I, S408N, P396L (antibody)
heavy: B1 heavy with V114A, K209I, H269Q, P279L, S291N, M295V
B10: IgG1 Fc mutant V282E, V369I, L406F (antibody)
heavy: B1 heavy with V114A, V165E, V252I, H269Q, L289F, M295V
B11: IgG1 Fc mutant P244A, K326I, C367R, S375I, K447T (antibody)
heavy: B1 heavy with V114A, P127A, K209I, C250R, S258I, H269Q, M295V, K330T
B12: IgG1 Fc mutant P247L, I253N, K334N (antibody)
heavy: B1 heavy with V114A, P130L, I136N, K217N, H269Q, M295V
B13: IgG1 Fc mutant P247L, W313R, E388G (antibody)
heavy: B1 heavy with V114A, P130L, W196R, H269Q, E271G, M295V
B14: IgG1 Fc mutant R301H, K340E, D399E (antibody)
heavy: B1 heavy with V114A, R184H, K223E, H269Q, D282E, M295V
B15: IgG1 Fc mutant F243L, V305I, A378D, F404S, P396L (antibody)
heavy: B1 heavy with V114A, F126L, V188I, A261D, H269Q, P279L, F287S, M295V
B16: IgG1 Fc mutant A378V, N390I, V422I (antibody)
heavy: B1 heavy with V114A, A261V, H269Q, N273I, M295V, V305I
B17: IgG1 Fc mutant V273I, K326E, L328I, P396L (antibody)
heavy: B1 heavy with V114A, V156I, K209E, L211I, H269Q, P279L, M295V
B18: IgG1 Fc mutant F275L, Q362H, N384K, P396L (antibody)
heavy: B1 heavy with V114A, F158L, Q245H, N267K, H269Q, P279L, M295V
B19: IgG1 Fc mutant K246E, V284M, V308A (antibody)
heavy: B1 heavy with V114A, K129E, V167M, V191A, H269Q, M295V
B20: IgG1 Fc mutant K222N, T335N, K370E, A378V, T394M (antibody)
heavy: B1 heavy with K105N, V114A, T218N, K253E, A261V, H269Q, T277M, M295V
B21: IgG1 Fc mutant K290E, V369A, T393A, P396L (antibody)
heavy: B1 heavy with V114A, K173E, V252A, H269Q, T276A, P279L, M295V
B22: IgG1 Fc mutant P244H, L358M, V379M, N384K, V397M (antibody)
heavy: B1 heavy with V114A, P127H, L241M, V262M, N267K, H269Q, V280M, M295V
B23: IgG1 Fc mutant E269K, K290N, Q311R, H433Y (antibody)
heavy: B1 heavy with V114A, E152K, K173N, Q194R, H269Q, M295V, H316Y
B24: IgG1 Fc mutant D221E, D270E, V308A, Q311H, P396L, G402D (antibody)
heavy: B1 heavy with D104E, V114A, D153E, V191A, Q194H, H269Q, P279L, G285D, M295V
B25: IgG1 Fc mutant K334E, E380D, G446V (antibody)
heavy: B1 heavy with V114A, K217E, E263D, H269Q, M295V, G329V
B26: IgG1 Fc mutant K290T, N390I, P396L (antibody)
heavy: B1 heavy with V114A, K173T, H269Q, N273I, P279L, M295V
B27: IgG1 Fc mutant P343S, P353L, S375I, S383N (antibody)
heavy: B1 heavy with V114A, P226S, P236L, S258I, S266N, H269Q, M295V
B28: IgG1 Fc mutant V397M, T411A, S415N (antibody)
heavy: B1 heavy with V114A, H269Q, V280M, T294A, M295V, S298N
B29: IgG1 Fc mutant K326Q, K334E, T359N, T366S (antibody)
heavy: B1 heavy with V114A, K209Q, K217E, T242N, T249S, H269Q, M295V
B30: IgG1 Fc mutant F243L, R255L, E318K (antibody)
heavy: B1 heavy with V114A, F126L, R138L, E201K, H269Q, M295V
B31: IgG1 Fc mutant T335N, K370E, A378V, T394M, S424L (antibody)
heavy: B1 heavy with V114A, T218N, K253E, A261V, H269Q, T277M, M295V, S307L
B32: IgG1 Fc mutant D280E, S354F, A431D, L441I (antibody)
heavy: B1 heavy with V114A, D163E, S237F, H269Q, M295V, A314D, L324I
B33: IgG1 Fc mutant P247L, A431V, S442F (antibody)
heavy: B1 heavy with V114A, P130L, H269Q, M295V, A314V, S325F
B34: IgG1 Fc mutant P291S; K288E; H268L: A141V (antibody)
heavy: B1 heavy with A24V, V114A, H151L, K171E, P174S, H269Q, M295V
B35: IgG1 Fc mutant K334E, T359N, T366S, Q386R (antibody)
heavy: B1 heavy with V114A, K217E, T242N, T249S, H269R, M295V
B36: IgG1 Fc mutant F275I, K334N, V348M (antibody)
heavy: B1 heavy with V114A, F158I, K217N, V231M, H269Q, M295V
B37: IgG1 Fc mutant T256S, V305I, K334E, N390S (antibody)
heavy: B1 heavy with V114A, T139S, V188I, K217E, H269Q, N273S, M295V

Biological target: soluble dimeric FcγRIIB (extracellular domain fused to hinge-CH2-CH3 of human IgG2) (human) (UniProt P31994)
Assay: ELISA

Row | Binding to FcγRIIB (ELISA) (fold decrease) | Molecule
1 | 0.5 | IgG1 Fc mutant D399E, M428L (from UniProt P01857 1-330) (antibody)

Biological target: soluble monomeric FcγRIIIA (extracellular region joined to linker-AVITAG), allele not stated (human) (UniProt P08637)
Assay: ELISA

Chain of soluble monomeric FcγRIIIA (extracellular region joined to linker-AVITAG), allele not stated (human) (P08637 17-208): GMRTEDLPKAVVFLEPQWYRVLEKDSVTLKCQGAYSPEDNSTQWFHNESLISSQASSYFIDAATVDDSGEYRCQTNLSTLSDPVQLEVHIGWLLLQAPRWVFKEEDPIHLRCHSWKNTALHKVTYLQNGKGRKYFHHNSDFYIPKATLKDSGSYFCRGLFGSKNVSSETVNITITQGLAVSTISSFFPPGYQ

Row | Binding to FcγRIIIA (ELISA) (fold increase) | Binding to FcγRIIIA (ELISA) (fold decrease) | Molecule
2 | 0.5 | – | IgG1 Fc mutant S298N, S407R (from UniProt P01857 1-330) (antibody)
3 | – | 0.5 | IgG1 Fc mutant D399E, M428L (from UniProt P01857 1-330) (antibody)
4 | 0.5 | – | IgG1 Fc mutant V348M; K334N; F275I; Y202M; K147T (from UniProt P01857 1-330) (antibody)
5 | 0.5 | – | IgG1 Fc mutant D312E, K327N, I378S (from UniProt P01857 1-330) (antibody)
6 | 0.5 | – | IgG1 Fc mutant S383N; N384K; T256N; V262L; K218E; R214I; K205E; F149Y; K133M (from UniProt P01857 1-330) (antibody)
7 | 0.5 | – | IgG1 Fc mutant H310Y; T289A; G337E (from UniProt P01857 1-330) (antibody)
8 | 0.5 | – | IgG1 Fc mutant S407I (from UniProt P01857 1-330) (antibody)

Biological target: T1, soluble dimeric FcγRIIB (extracellular …)
Assay: ELISA

Row | Binding to FcγRIIB (ELISA) | binding result | Molecule
9 | 6 fold increase | – | B1
10 | – | no binding | B2
11 | 0.25 fold decrease | – | B3
12 | 0.5 fold decrease | – | B4
13 | 6 fold increase | – | B5
14 | 10 fold increase | – | B6
15 | 5 fold increase | – | B7
16 | 4.8 fold increase | – | B8
17 | 9.3 fold increase | – | B9
18 | 7 fold increase | – | B10
19 | 3 fold increase | – | B11
20 | 2.5 fold increase | – | B12
21 | 1 fold increase | – | B13
22 | 0.25 fold decrease | – | B14
23 | 5.4 fold increase | – | B15
24 | 5 fold increase | – | B16
25 | 10.8 fold increase | – | B17
26 | 3.7 fold increase | – | B18
27 | – | no binding | B19
28 | 7 fold increase | – | B20
29 | 6.7 fold increase | – | B21
30 | 1.5 fold increase | – | B22
31 | – | no binding | B23
32 | 0.1 fold increase | – | B24
33 | – | no binding | B25
34 | 6.1 fold increase | – | B26
35 | 6 fold increase | – | B27
36 | 5 fold increase | – | B28
37 | 5 fold increase | – | B29

Biological target: T2, soluble monomeric FcγRIIIA (extracellular region joined to linker-AVITAG), allele not stated (human, UniProt P08637 17-208)
T2 construct: extracellular domain; also called FcRIIIA; CD16A; not shown: linker-AVITAG
Assay: ELISA

T2 sequence (P08637 17-208): as above

Row | Binding to FcγRIIIA (ELISA) | binding result | Molecule
38 | 1.5 fold increase | – | B1
39 | 1 fold increase | – | B30
40 | – | no binding | B2
41 | 0.75 fold increase | – | B3
42 | – | no binding | B4
43 | 2.5 fold increase | – | B5
44 | 0.25 fold decrease | – | B6
45 | 1 fold increase | – | B7
46 | 0.5 fold increase | – | B31
47 | 1.1 fold increase | – | B8
48 | 4 fold increase | – | B9
49 | 0.5 fold increase | – | B10
50 | 3 fold increase | – | B32
51 | 3 fold increase | – | B12
52 | 1.5 fold increase | – | B13
53 | 0.5 fold decrease | – | B14
54 | 1.6 fold increase | – | B15
55 | 0.5 fold increase | – | B16

Row | Binding to FcγRIIIA (ELISA) | binding result | Molecule
56 | 1.3 fold increase | – | B17
57 | 2.2 fold increase | – | B18
58 | – | no binding | B19
59 | 1 fold increase | – | B20
60 | 1.3 fold increase | – | B21
61 | 1 fold | – | B33
62 | 1.75 fold increase | – | B22
63 | – | no binding | B23
64 | 3.6 fold increase | – | B24
65 | 0.5 fold decrease | – | B34
66 | – | no binding | B25
67 | 2.8 fold increase | – | B26
68 | 1 fold increase | – | B35
69 | 0.5 fold increase | – | B27
70 | 0.25 fold increase | – | B28
71 | 1.5 fold increase | – | B29
72 | 0.5 fold increase | – | B36
73 | 1.5 fold increase | – | B37
